Earlier results, collected in patent US5679705A, “Triterpene derivatives with immunosuppressant activity” (Merck & Co., Inc., priority 1996, dated 1997).

Target: T1, Kv 1.3 channels (CHO cells transfected with Kv 1.3 channels) (Homo sapiens, UniProt P22001)
T1 construct: expressed in transfected cells; host or cells: CHO cells
Conditions: stated in the method for the peptide used to establish the efflux window; read-out: IC50 (blocker of Kv 1.3 channels)

T1 sequence (P22001 whole entry): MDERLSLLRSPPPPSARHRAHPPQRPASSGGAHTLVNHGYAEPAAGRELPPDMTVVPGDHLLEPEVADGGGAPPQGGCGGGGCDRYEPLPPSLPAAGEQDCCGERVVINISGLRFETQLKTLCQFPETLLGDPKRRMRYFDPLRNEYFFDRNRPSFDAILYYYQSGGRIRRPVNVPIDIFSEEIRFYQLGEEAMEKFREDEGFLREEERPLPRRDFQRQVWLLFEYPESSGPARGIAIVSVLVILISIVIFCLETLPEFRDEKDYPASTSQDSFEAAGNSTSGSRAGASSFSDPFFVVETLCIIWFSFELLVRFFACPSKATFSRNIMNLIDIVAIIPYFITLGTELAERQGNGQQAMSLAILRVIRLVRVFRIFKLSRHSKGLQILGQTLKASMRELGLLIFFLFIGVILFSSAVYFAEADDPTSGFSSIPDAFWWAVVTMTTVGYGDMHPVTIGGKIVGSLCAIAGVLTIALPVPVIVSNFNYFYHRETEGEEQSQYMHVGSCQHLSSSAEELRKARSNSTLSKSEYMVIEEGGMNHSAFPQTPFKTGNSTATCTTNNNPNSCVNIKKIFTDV

For “margatoxin (TIINVKCTSPKQCLPPCKAQFGQSAGAKCMNGKCKCYPH; UniProt P40755 1-39, looked up)”, the IC50 is given as 0.1 nM.
